These results are taken from patent US12077566 (dated 2024).

One experiment concerns the target T1, LDLR (UniProt P01130 22-860, limits assumed).
T1 construct: whole, on cells
As to the kind of experiment: immunofluorescence co-localization on cells.

Another experiment has as its target T2, N-cadherin (UniProt P19022 160-906, limits assumed).
T2 construct: whole, on cells
T2 sequence (looked up): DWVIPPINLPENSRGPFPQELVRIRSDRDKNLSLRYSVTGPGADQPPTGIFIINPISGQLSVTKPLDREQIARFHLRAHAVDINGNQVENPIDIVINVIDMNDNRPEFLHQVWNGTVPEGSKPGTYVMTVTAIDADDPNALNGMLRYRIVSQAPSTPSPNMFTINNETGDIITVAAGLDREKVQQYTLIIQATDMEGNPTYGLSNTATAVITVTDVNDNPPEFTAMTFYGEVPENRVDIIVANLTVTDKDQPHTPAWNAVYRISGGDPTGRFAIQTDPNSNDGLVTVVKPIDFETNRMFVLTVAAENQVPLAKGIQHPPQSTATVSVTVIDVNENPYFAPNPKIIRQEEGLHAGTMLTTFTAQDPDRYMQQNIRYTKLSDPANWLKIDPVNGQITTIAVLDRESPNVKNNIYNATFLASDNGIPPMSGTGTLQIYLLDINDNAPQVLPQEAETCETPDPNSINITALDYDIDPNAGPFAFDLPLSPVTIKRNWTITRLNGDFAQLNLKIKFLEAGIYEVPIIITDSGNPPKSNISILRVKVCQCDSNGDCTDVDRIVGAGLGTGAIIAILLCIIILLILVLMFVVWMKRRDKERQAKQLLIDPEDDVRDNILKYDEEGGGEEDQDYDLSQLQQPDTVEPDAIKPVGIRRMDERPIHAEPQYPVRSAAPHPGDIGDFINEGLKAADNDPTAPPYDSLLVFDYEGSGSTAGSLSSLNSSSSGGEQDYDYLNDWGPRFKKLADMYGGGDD
The experiment in a line: immunofluorescence co-localization on cells.

Experiment [1] deals with T3, EGFR extracellular domain (with an amino acid sequence of 25-645) (human, UniProt P00533 25-645).
T3 construct: range 25-645; Coupled on a CM5 chip; also called epidermal growth factor receptor extracellular domain; ligand (on the chip)
As to the kind of experiment: SPR, Biacore T200; EGFR extracellular domain on CM5 chip, rLZ-8 protein as analyte. Background: SPR reads the build-up and loss of mass on a sensor chip optically.

The target in experiment [2] is T3, EGFR extracellular domain (with an …). The experiment in a line: SPR, Biacore T200; EGFR extracellular domain on CM5 chip.
For experiment [3] the target is unchanged. As to the kind of experiment: EGFR affinity test (SPR).

In general, Kd refers to the equilibrium constant for the complex coming apart. Read a high Kd as lower affinity. By koff is commonly meant the first-order rate constant of dissociation. A high value points to a short-lived complex. For orientation: kon means the rate constant with which the complex forms. Low values mean slow association, high ones fast association.

T1 sequence (P01130 22-860 limits assumed): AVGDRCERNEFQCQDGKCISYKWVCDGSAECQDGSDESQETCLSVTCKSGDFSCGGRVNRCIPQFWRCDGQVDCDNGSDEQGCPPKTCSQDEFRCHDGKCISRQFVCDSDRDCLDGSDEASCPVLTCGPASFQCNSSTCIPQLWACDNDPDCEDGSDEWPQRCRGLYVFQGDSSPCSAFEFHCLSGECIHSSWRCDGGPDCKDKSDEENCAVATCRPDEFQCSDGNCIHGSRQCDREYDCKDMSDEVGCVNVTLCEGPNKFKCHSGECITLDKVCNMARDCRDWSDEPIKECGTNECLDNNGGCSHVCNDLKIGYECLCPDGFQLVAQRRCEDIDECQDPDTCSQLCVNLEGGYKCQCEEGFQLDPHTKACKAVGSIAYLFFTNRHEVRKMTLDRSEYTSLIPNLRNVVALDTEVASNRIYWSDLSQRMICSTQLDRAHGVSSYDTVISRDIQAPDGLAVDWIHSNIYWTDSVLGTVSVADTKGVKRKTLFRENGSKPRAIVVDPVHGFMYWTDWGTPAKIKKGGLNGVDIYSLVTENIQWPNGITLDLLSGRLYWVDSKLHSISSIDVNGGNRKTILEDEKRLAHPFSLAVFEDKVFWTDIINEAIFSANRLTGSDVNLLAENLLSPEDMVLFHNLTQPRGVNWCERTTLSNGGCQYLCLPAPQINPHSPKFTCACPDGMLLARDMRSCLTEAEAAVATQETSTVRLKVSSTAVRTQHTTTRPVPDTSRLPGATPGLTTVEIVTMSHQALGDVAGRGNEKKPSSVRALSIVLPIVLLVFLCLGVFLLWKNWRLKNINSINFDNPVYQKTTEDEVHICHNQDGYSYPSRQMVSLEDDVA

B1: recombinant immunoregulatory protein of Ganoderma lucidum (rLZ-8) (other)
chain: MSDTALIFRLAWDVKKLSFDYTPNWGRGNPNNFIDTVTFPKVLTDKAYTYRVAVSGRNLGVKPSYAVESDGSQKVNFLEYNSGYGIADTNTIQVFVVDPDTNNDFIIAQWN
notes: also called Lingzhi-8
B1: the binding result in the experiment with LDLR and in the experiment with N-cadherin was “no binding” each time.

B2: rLZ-8 (K41D/K46E/K74E) (other)
chain: MSDTALIFRLAWDVKKLSFDYTPNWGRGNPNNFIDTVTFPDVLTDEAYTYRVAVSGRNLGVKPSYAVESDGSQEVNFLEYNSGYGIADTNTIQVFVVDPDTNNDFIIAQWN
notes: Mutant of rLZ-8
As to B2, in experiment [1], binding was characterised by a dissociation constant (Kd) of 12.2 nM, the koff came to 0.000431 s⁻¹ and the kon turned out to be 35300 M⁻¹ s⁻¹.

B3: rLZ-8 (R9A) (other)
chain: MSDTALIFALAWDVKKLSFDYTPNWGRGNPNNFIDTVTFPKVLTDKAYTYRVAVSGRNLGVKPSYAVESDGSQKVNFLEYNSGYGIADTNTIQVFVVDPDTNNDFIIAQWN
notes: Alanine mutant of rLZ-8
In the case of B3, in experiment [1], binding was characterised by a dissociation constant (Kd) of 8.63 nM, the dissociation rate constant (koff) turned out to be 0.000528 s⁻¹ and the kon was found to be 61200 M⁻¹ s⁻¹.

B4: rLZ-8 (K46E/K74E) (other)
chain: MSDTALIFRLAWDVKKLSFDYTPNWGRGNPNNFIDTVTFPKVLTDEAYTYRVAVSGRNLGVKPSYAVESDGSQEVNFLEYNSGYGIADTNTIQVFVVDPDTNNDFIIAQWN
notes: Mutant of rLZ-8
In experiment [1], B4 displayed a Kd of 9.35 nM, a koff of 0.000614 s⁻¹ and a kon of 65700 M⁻¹ s⁻¹.

B5: rLZ-8 (K16A/K41A) (other)
chain: MSDTALIFRLAWDVKALSFDYTPNWGRGNPNNFIDTVTFPAVLTDKAYTYRVAVSGRNLGVKPSYAVESDGSQKVNFLEYNSGYGIADTNTIQVFVVDPDTNNDFIIAQWN
notes: Alanine mutant of rLZ-8
In experiment [1], B5 registered a dissociation constant (Kd) of 1240 nM, a koff of 0.000273 s⁻¹ and a kon of 220 M⁻¹ s⁻¹.

B6: rLZ-8 (S18A) (other)
chain: MSDTALIFRLAWDVKKLAFDYTPNWGRGNPNNFIDTVTFPKVLTDKAYTYRVAVSGRNLGVKPSYAVESDGSQKVNFLEYNSGYGIADTNTIQVFVVDPDTNNDFIIAQWN
notes: Alanine mutant of rLZ-8
B6: in experiment [1], the Kd turned out to be 489 nM, the koff was 0.00182 s⁻¹ and the kon is 3720 M⁻¹ s⁻¹.

B7: rLZ-8 (L17K) (other)
chain: MSDTALIFRLAWDVKKKSFDYTPNWGRGNPNNFIDTVTFPKVLTDKAYTYRVAVSGRNLGVKPSYAVESDGSQKVNFLEYNSGYGIADTNTIQVFVVDPDTNNDFIIAQWN
notes: Surface potential mutant of rLZ-8
In experiment [1], B7 displayed a Kd of 7.49 nM, a koff of 7.56e-05 s⁻¹ and a kon of 10100 M⁻¹ s⁻¹.

B8: rLZ-8 (D45A) (other)
chain: MSDTALIFRLAWDVKKLSFDYTPNWGRGNPNNFIDTVTFPKVLTAKAYTYRVAVSGRNLGVKPSYAVESDGSQKVNFLEYNSGYGIADTNTIQVFVVDPDTNNDFIIAQWN
notes: Alanine mutant of rLZ-8
In experiment [1], B8 displayed a Kd of 620 nM, a koff of 0.000743 s⁻¹ and a kon of 1200 M⁻¹ s⁻¹.

B9: rLZ-8 (L17K/D70K) (other)
chain: MSDTALIFRLAWDVKKKSFDYTPNWGRGNPNNFIDTVTFPKVLTDKAYTYRVAVSGRNLGVKPSYAVESKGSQKVNFLEYNSGYGIADTNTIQVFVVDPDTNNDFIIAQWN
notes: as for B7
In the case of B9, the “fold increase of affinity against rLZ-8” value in experiment [2] was 6 times. In experiment [1], this molecule displayed a dissociation constant (Kd) of 1.53 nM, a koff of 0.000329 s⁻¹ and a kon of 215000 M⁻¹ s⁻¹.

B10: rLZ-8 (K16A/S18A/K41A/D45A) (other)
chain: MSDTALIFRLAWDVKALAFDYTPNWGRGNPNNFIDTVTFPAVLTAKAYTYRVAVSGRNLGVKPSYAVESDGSQKVNFLEYNSGYGIADTNTIQVFVVDPDTNNDFIIAQWN
notes: Alanine mutant of rLZ-8, made by the same fermentation and purification as rLZ-8
Turning to B10, in experiment [1], the affinity, expressed as Kd, was 30600 nM; the koff came to 0.00423 s⁻¹; the kon was 139 M⁻¹ s⁻¹.

B11: rLZ-8 (D70K) (other)
chain: MSDTALIFRLAWDVKKLSFDYTPNWGRGNPNNFIDTVTFPKVLTDKAYTYRVAVSGRNLGVKPSYAVESKGSQKVNFLEYNSGYGIADTNTIQVFVVDPDTNNDFIIAQWN
notes: as for B7
Regarding B11, the “fold increase of affinity against rLZ-8” value in experiment [2] was 2.3 times. In addition, the “fold increase of affinity equilibrium constant against rLZ-8” value in experiment [3] worked out at 4 times. In experiment [1], the affinity, expressed as Kd, was 2.25 nM; the koff is 0.000457 s⁻¹; the kon was 203000 M⁻¹ s⁻¹.

B12: rLZ-8 (D20H) (other)
chain: MSDTALIFRLAWDVKKLSFHYTPNWGRGNPNNFIDTVTFPKVLTDKAYTYRVAVSGRNLGVKPSYAVESDGSQKVNFLEYNSGYGIADTNTIQVFVVDPDTNNDFIIAQWN
notes: as for B7
For B12, in experiment [1], binding was put at a Kd of 7.36 nM, the koff turned out to be 0.000432 s⁻¹ and the kon is 58700 M⁻¹ s⁻¹.
